The assay deals with T1, HLA-A0201 molecule on T2 cells (TAP-, HLA-A0201+) (human).
T1 construct: Empty, thermolabile HLA-A0201 on T2 cells; also called HLA-A2; HLA-A2 molecule
Put plainly: T2 stabilization assay, surface HLA-A2 by flow cytometry (BB7.2). As to the method:
T2 cells (TAP-, HLA-A0201+) were incubated overnight at 37° C. at 1×10⁶ cells/ml in FCS-free RPMI medium supplemented with 10 ug/ml human beta-2m (Sigma, St Louis, Mo., USA) in the absence (negative control) or presence peptides at various final concentrations (50, 10 and 2 ug/ml). Brefeldin A (Sigma) at 5 ug/ml was added to the cultures for the final two hrs of incubation. Then T2 cells were washed and stained with anti-HLA-A2.1 (BB7.2) mAb conjugated to FITC for 30 min at 4° C. and followed by washing with staining buffer (PBS plus 1% FBS and 0.02% azide). The expression of the HLA-A2 on the cell surface was measured by flow cytometry on a FACScalibur (Becton Dickinson) and analyzed with FlowJo 9.6.3 software.

From patent US20200392183A1 (Memorial Sloan Kettering, published 2020) come the findings set out here.

B1: native WT1 peptide NQMNLGATL (SEQ ID NO:5) (peptide)
peptide: NQMNLGATL
notes: Synthetic 9-mer from Genemed Synthesis; also called native peptide; A24-native peptide
As for B1, the binding result was “no binding (tested: 50, 10 and 2 ug/ml tested)”.
Next, NLMNLGATL (also called A24-het-1; Het24-1) [heteroclitic WT1 analogue peptide NLMNLGATL (SEQ ID NO:6)]: “binds”; NYMNLGATL (also called A24-het-2; Het24-2) [heteroclitic WT1 analogue peptide NYMNLGATL (SEQ ID NO:7)]: “no binding (tested: 50, 10 and 2 ug/ml tested)”.
